Experimental data from patent US20200024330A1.

Legend:
Assay in all cases: cell-based or functional assay
[1] = biological target: HIV-1 Env of isolate MGRM-G-006 (subtype G) (HIV-1)
[2] = biological target: HIV-1 92BR020 Env (pseudovirus) (HIV-1)
[3] = biological target: HIV-1 Env of isolate 92UG001 (subtype D) (HIV-1)
[4] = biological target: HIV-1 Env of isolate MG RM-D-012 (subtype D) (HIV-1)
[5] = biological target: HIV-1 Env of isolate MG RM-D-016 (subtype D) (HIV-1)
[6] = biological target: HIV-1 Env of isolate MG RM-D-018 (subtype D) (HIV-1)
[7] = biological target: HIV-1 Env of isolate MG RM-D-020 (subtype D) (HIV-1)
[8] = biological target: HIV-1 Env of isolate MG RM-D-026 (subtype D) (HIV-1)
[9] = biological target: HIV-1 Env of isolate MG RM-D-029 (subtype D) (HIV-1)
[10] = biological target: HIV-1 Env of isolate MGRM-C-008 (pseudovirus) (HIV-1 isolate MGRM-C-008, subtype C)
[11] = biological target: HIV-1 Env of isolate MGRM-F1-013 (HIV-1)
[12] = biological target: HIV-1 Env of isolate MGRM-F1-022 (HIV-1)
[13] = biological target: HIV-1 JR-CSF Env D477A (HIV-1 (isolate JR-CSF)) (UniProt P20871)
[14] = biological target: HIV-1 JR-CSF Env V120A (HIV-1 (isolate JR-CSF)) (UniProt P20871)
[15] = biological target: HIV-1 JR-CSF Env V127A (HIV-1 (isolate JR-CSF)) (UniProt P20871)
[16] = biological target: HIV-1 MGRM-Chronic-B-002 Env (pseudovirus) (HIV-1)
[17] = biological target: HIV-1 MGRM-Chronic-B-018 Env (pseudovirus) (HIV-1)
[18] = biological target: HIV-1 Env of isolate PVO.4 (HIV-1)
[19] = biological target: HIV-1 Env of isolate 92RW008 (HIV-1)
[20] = biological target: HIV-1 Env of isolate CMU02 (HIV-1)
[21] = biological target: HIV-1 Env of isolate MGRM-D-004 (HIV-1)
[22] = biological target: HIV-1 Env of isolate MGRM-D-005 (HIV-1)
[23] = biological target: HIV-1 93RW029 envelope glycoprotein (Env) (HIV-1)
[24] = biological target: HIV-1 94UG103 envelope glycoprotein (Env) on pseudovirus (HIV-1)
[25] = biological target: HIV-1 94UG103 envelope protein (Env) on pseudovirus (HIV-1)
[26] = biological target: HIV-1 APV-6 envelope protein (Env) on pseudovirus (HIV-1)
[27] = biological target: HIV-1 Env of isolate MGRM-D-012 (clade D) (HIV-1)
[28] = biological target: HIV-1 Env of isolate MGRM-D-016 (clade D) (HIV-1)
[29] = biological target: HIV-1 JR-CSF envelope protein (Env) on pseudovirus (HIV-1) (UniProt P20871)
[30] = biological target: HIV-1 MGRM-A-003 envelope glycoprotein (Env) (HIV-1)
[31] = biological target: HIV-1 Env of isolate 92WR020 (HIV-1)
[32] = biological target: HIV-1 Env of isolate 92WR026 (HIV-1)

Chain of PGT-142 (4995_E20) (antibody) (VH): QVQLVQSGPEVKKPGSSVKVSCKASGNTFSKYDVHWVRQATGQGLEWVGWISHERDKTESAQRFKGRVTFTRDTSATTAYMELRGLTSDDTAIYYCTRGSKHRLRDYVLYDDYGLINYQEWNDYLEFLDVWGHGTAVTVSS
Chain of PGT-142 (4995_E20) (antibody) (VL): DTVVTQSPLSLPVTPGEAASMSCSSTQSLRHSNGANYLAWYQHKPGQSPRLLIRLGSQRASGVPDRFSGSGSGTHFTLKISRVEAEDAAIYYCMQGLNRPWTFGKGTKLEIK
Chain of PGT-143 (4980_N08) (antibody) (VH): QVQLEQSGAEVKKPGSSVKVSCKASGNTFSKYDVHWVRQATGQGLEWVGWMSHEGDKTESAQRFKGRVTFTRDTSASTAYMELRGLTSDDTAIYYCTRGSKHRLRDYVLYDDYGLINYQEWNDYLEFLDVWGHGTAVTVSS
Chain of PGT-143 (4980_N08) (antibody) (VL): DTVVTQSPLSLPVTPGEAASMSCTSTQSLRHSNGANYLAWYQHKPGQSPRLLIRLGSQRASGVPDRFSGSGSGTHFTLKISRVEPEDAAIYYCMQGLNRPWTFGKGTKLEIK
Chain of PGT-141 (4964_G22; 4993_K13) (antibody) (VH): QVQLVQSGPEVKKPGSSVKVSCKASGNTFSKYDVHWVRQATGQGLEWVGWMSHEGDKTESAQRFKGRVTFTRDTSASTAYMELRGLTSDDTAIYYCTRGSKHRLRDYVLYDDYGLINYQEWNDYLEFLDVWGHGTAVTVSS
Chain of PGT-144 (4970_K22) (antibody) (VH): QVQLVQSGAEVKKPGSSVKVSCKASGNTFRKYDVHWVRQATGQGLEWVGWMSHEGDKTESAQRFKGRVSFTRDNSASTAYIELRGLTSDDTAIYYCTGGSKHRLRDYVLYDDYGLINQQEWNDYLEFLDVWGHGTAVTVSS
Chain of PGT-144 (4970_K22) (antibody) (VL): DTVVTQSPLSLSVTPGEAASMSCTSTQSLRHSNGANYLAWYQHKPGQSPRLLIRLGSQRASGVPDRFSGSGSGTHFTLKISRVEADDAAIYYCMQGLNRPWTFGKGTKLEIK

## PGT-143 (4980_N08) (antibody)
[1]
  neutralization IC50: 0.031 µg/mL

## 5145_B14 (PGT-127) (antibody)
[2]
  IC50, pseudovirus neutralization: 0.059 µg/mL
[3]
  IC50 (µg/mL), pseudovirus neutralization: > 50 µg/mL
[4]
  IC50 (µg/mL), pseudovirus neutralization: > 50 µg/mL
[5]
  IC50 (µg/mL), pseudovirus neutralization: > 50 µg/mL
[6]
  IC50 (µg/mL), pseudovirus neutralization: 0.021 µg/mL
[7]
  IC50 (µg/mL), pseudovirus neutralization: 0.015 µg/mL
[8]
  IC50 (µg/mL), pseudovirus neutralization: > 50 µg/mL
[9]
  IC50 (µg/mL), pseudovirus neutralization: > 50 µg/mL
[10]
  IC50 (µg/mL) neutralization: > 50 µg/mL
[11]
  IC50: > 50 µg/mL
[12]
  IC50: > 50 µg/mL
[13]
  Fold IC50 increase relative to wild-type: 1.7 fold
[14]
  Fold IC50 increase relative to wild-type: 1.5 fold
[15]
  Fold IC50 increase relative to wild-type: 2.5 fold
[16]
  IC50, pseudovirus neutralization: 0.279 µg/mL
[17]
  IC50, pseudovirus neutralization: 1.9 µg/mL

## VRC01 (antibody)
[11]
  IC50, pseudovirus neutralization: 0.17 µg/mL
[12]
  IC50, pseudovirus neutralization: 0.055 µg/mL
[1]
  neutralization IC50: 0.055 µg/mL
[18]
  neutralization IC50: 0.218 µg/mL

## PGV04 (antibody)
[19]
  IC50: 14 ng/mL
[20]
  IC50 (µg/mL), pseudovirus neutralization: 1.24 µg/mL
[21]
  IC50 (µg/mL), pseudovirus neutralization: 43.2 µg/mL
[22]
  IC50 (µg/mL), pseudovirus neutralization: > 50 µg/mL
[11]
  IC50 (µg/mL), pseudovirus neutralization: 0.084 µg/mL
[1]
  neutralization IC50: 0.083 µg/mL

## PGT-144 (4970_K22) (antibody)
[1]
  neutralization IC50: 3.84 µg/mL

## 1496_C09 (PG9) (TCN-109) (antibody)
[23]
  IC50 (µg/ml), pseudovirus neutralization: 1.19 µg/mL
[24]
  IC50 (ug/ml), neutralizing activity: 0.31 µg/mL
  IC50 neutralization: 0.31 µg/mL
  IC80, neutralization: 1.95 µg/mL
  IC90 (pseudovirus neutralization): 3.37 µg/mL
  IC90, neutralization: 5.54 µg/mL
[25]
  neutralization IC50: 0.173 µg/mL
[26]
  neutralization IC50: 0.0869 µg/mL
[19]
  IC50: 6 ng/mL
[20]
  IC50 (µg/ml), pseudovirus neutralization: 7.69 µg/mL
[21]
  IC50 (µg/mL), pseudovirus neutralization: 0.06 µg/mL
[22]
  IC50 (µg/mL), pseudovirus neutralization: 1.8 µg/mL
[27]
  IC50 (µg/ml), pseudovirus neutralization: 9.31 µg/mL
[28]
  IC50 (µg/ml), pseudovirus neutralization: 0.1 µg/mL
[11]
  IC50 (µg/mL), pseudovirus neutralization: 1.25 µg/mL
[1]
  neutralization IC50: 1.98 µg/mL
[29]
  neutralization IC50: < 2.5 ng/mL
[30]
  IC50 (µg/ml), pseudovirus neutralization: 0.65 µg/mL

## PGT-121 (antibody)
[19]
  IC50 (µg/mL), pseudovirus neutralization: 0.003 µg/mL
[31]
  IC50 (µg/mL), pseudovirus neutralization: 0.004 µg/mL
[32]
  IC50 (µg/mL), pseudovirus neutralization: 0.014 µg/mL
[20]
  IC50 (µg/mL), pseudovirus neutralization: > 50 µg/mL

## 4838_L06 (PGT-121) (antibody)
[2]
  neutralization IC80: 0.0532 µg/mL
  neutralization IC90: 0.101 µg/mL
[3]
  IC50 (µg/mL), pseudovirus neutralization: > 50 µg/mL
[4]
  IC50 (µg/mL), pseudovirus neutralization: > 50 µg/mL
[5]
  IC50 (µg/mL), pseudovirus neutralization: > 50 µg/mL
[6]
  IC50 (µg/mL), pseudovirus neutralization: 0.005 µg/mL
[7]
  IC50 (µg/mL), pseudovirus neutralization: 0.01 µg/mL
[8]
  IC50 (µg/mL), pseudovirus neutralization: > 50 µg/mL
[9]
  IC50 (µg/mL), pseudovirus neutralization: > 50 µg/mL
[10]
  IC50 (µg/mL) neutralization: 0.012 µg/mL
[11]
  IC50: 0.083 µg/mL
[12]
  IC50: 0.104 µg/mL
[16]
  IC50, pseudovirus neutralization: 0.386 µg/mL
[17]
  IC50, pseudovirus neutralization: > 50 µg/mL

## PGT-122 (antibody)
[19]
  IC50 (µg/mL), pseudovirus neutralization: 0.003 µg/mL
[31]
  IC50 (µg/mL), pseudovirus neutralization: 0.009 µg/mL
[32]
  IC50 (µg/mL), pseudovirus neutralization: 0.036 µg/mL
[20]
  IC50 (µg/mL), pseudovirus neutralization: > 50 µg/mL

## PGT-142 (4995_E20) (antibody)
[1]
  neutralization IC50: 0.019 µg/mL

## PGT-141 (4964_G22; 4993_K13) (antibody)
[1]
  neutralization IC50: 0.043 µg/mL

## 4877_D15 (PGT-122) (antibody)
[2]
  IC50, pseudovirus neutralization: 0.021 µg/mL
[24]
  IC50 (ug/ml), neutralizing activity: 1.46 µg/mL
[3]
  IC50 (µg/mL), pseudovirus neutralization: > 50 µg/mL
[4]
  IC50 (µg/mL), pseudovirus neutralization: > 50 µg/mL
[5]
  IC50 (µg/mL), pseudovirus neutralization: > 50 µg/mL
[6]
  IC50 (µg/mL), pseudovirus neutralization: 0.007 µg/mL
[7]
  IC50 (µg/mL), pseudovirus neutralization: 0.007 µg/mL
[8]
  IC50 (µg/mL), pseudovirus neutralization: > 50 µg/mL
[9]
  IC50 (µg/mL), pseudovirus neutralization: > 50 µg/mL
[10]
  IC50 (µg/mL) neutralization: 0.028 µg/mL
[11]
  IC50: 0.152 µg/mL
[12]
  IC50: 0.277 µg/mL
[16]
  IC50, pseudovirus neutralization: 1.8 µg/mL
[17]
  IC50, pseudovirus neutralization: > 50 µg/mL
